Results from article PMC5897841 (2017).

T1: Aurora A_(D274N) kinase domain (human, UniProt O14965 122-403, D274N)
T1 sequence: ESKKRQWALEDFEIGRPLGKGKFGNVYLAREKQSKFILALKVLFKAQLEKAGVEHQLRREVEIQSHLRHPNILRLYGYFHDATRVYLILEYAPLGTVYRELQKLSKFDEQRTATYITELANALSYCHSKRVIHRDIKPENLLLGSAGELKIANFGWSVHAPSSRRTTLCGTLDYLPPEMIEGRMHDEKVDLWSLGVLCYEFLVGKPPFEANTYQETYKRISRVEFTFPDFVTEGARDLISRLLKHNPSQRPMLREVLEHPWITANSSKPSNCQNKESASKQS

B1: Aurora A wild-type kinase domain (untagged) (domain or fragment)
chain: FEIGRPLGKGKFGNVYLAREKQSKFILALKVLFKAQLEKAGVEHQLRREVEIQSHLRHPNILRLYGYFHDATRVYLILEYAPLGTVYRELQKLSKFDEQRTATYITELANALSYCHSKRVIHRDIKPENLLLGSAGELKIADFGWSVHAPSSRRTTLCGTLDYLPPEMIEGRMHDEKVDLWSLGVLCYEFLVGKPPFEANTYQETYKRISRVEFTFPDFVTEGARDLISRLLKHNPSQRPMLREVLEHPWI
B2: linear TPX2_((7–43)) peptide (peptide)
peptide: LSYSYDAPSDFINFSSLDDEGDTQNIDSWFEEKANLENLKGGGCQM
B3: CK2α kinase (enzyme)
chain: SGPVPSRARVYTDVNTHRPREYWDYESHVVEWGNQDDYQLVRKLGRGKYSEVFEAINITNNEKVVVKILKPVKKKKIKREIKILENLRGGPNIITLADIVKDPVSRTPALVFEHVNNTDFKQLYQTLTDYDIRFYMYEILKALDYCHSMGIMHRDVKPHNVMIDHEHRKLRLIDWGLAEFYHPGQEYNVRVASRYFKGPELLVDYQMYDYSLDMWSLGCMLASMIFRKEPFFHGHDNYDQLVRIAKVLGTEDLYDYIDKYNIELDPRFNDILGRHSRKRWERFVHSENQHLVSPEALDFLDKLLRYDHQSRLTAREAMEHPYFYTVVK
B4: synthetic linear CK2β_((186–200)) peptide (peptide)
chain: RLYGFKIHPMAYQLQ

What was measured:
Experiment in all cases: ITC
[1] = biological target: T2, cRAD-TPX2_((7–43)) display protein (Pyrococcus furiosus | human, UniProt O74036 108-287; O74036 302-349, K144A)
[2] = biological target: T2, cRAD-TPX2_((7–43)) display protein; remark: listed apart in the source
[3] = biological target: T1, Aurora A_(D274N) kinase domain
[4] = biological target: cRAD-CK2β_((186–200)) display protein (Pyrococcus furiosus | human, UniProt O74036 108-287; P67870 186-200; O74036 302-349, K144A)
CK2α kinase = biological target: B3

Binder: B1
- Kd [1]: 15.9 nM
- Ka [2]: 6.27e+07 M⁻¹

Binder: B2
- Ka [3]: 8.71e+06 M⁻¹

Binder: B3
- Ka [4]: 7.13e+06 M⁻¹

Binder: B4
- Ka (CK2α kinase): 7.27e+06 M⁻¹
